Experimental data: US20060239990A1, “Protein Arginine N-Methyltransferase 2 (PRMT-2)” (priority 2003, published 2006)

Tests used:
GST-Stat3 = target: T1, GST-Stat3 (Mus musculus, UniProt P42227); assay: In vitro methylation assay of GST-Stat3; type: biochemical; conditions: Flag fusion protein from transfected HEK293 cells, [3H]-AdoMet
T1 construct: The same region with the Arg31→Ala mutant was generated from the wild-type pGEX6P-3 STAT3 construct; made in house; host or cells: E. coli (BL21 (DE3); Top10 One Shot)
T1 sequence (P42227 1-131 limits assumed): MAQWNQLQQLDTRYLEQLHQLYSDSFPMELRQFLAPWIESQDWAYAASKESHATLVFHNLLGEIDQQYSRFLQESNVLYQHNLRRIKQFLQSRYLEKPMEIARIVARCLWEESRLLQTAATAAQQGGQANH
Procedure: 293 cells were transiently transfected with expression vectors encoding Flag-tagged wild-type or mutant mouse PRMT2. After incubation for 48 hr, cells were lysed with 500 μl of RIPA buffer and 1.8 mg of 293 cell lysates was incubated with 40 μl of Anti-Flag M2 Affinity Gel (Sigma) for 3 hr at 4° C. Immune complexes were washed three times with lysis buffer without proteinase inhibitor and subjected to in vitro methylation reaction. Mouse fibroblasts were grown to 80% confluence on a 10 cm plate. Cells were washed and scraped off the plate into 500 μl of PBS (pH 7.4), and were lysed by sonication. After centrifugation at 15,000 rpm for 10 min at 4° C., the supernatants were used as the enzyme source. In vitro methylation reactions were performed by adding the immune complexes or cell lysates to 0.64 μg Histone and/or 1 μg of GST, GST-STAT3 or GST-STAT3 Arg31→Ala31 using 2 μCi of the methyl donor S-adenosyl-1[methyl-3H]methionine ([3H]-AdoMet) (Amersham Biosciences) in a final volume of 35 μl. The reactions were incubated for 1 hr at 4° C. and were terminated by addition of 3×SDS-loading buffer. […]

[1] = Leptin sensitivity study in mice; type: in vivo, mouse; conditions: for food intake: after administration of leptin
Procedure: To determine leptin sensitivity, 9- to 13-week-old mice, matched for similar body weight at both day 4 and day 0, were individually caged and body weight and food intake were measured once daily (5:30 pm) throughout the experiment. For the first 7 days, mice were injected intraperitoneally twice daily (12:00 pm and 6:00 pm) with PBS to establish a baseline of weight change and food intake. […] Body weight and food intake was measured once a day during the experiment.

[2] = tested on: hypothalamic POMC and NPY mRNA; assay: Leptin treatment, hypothalamic POMC and NPY mRNA by real-time PCR; type: in vivo, mouse; conditions: for weight loss: leptin 0.5 μg/g body weight
Procedure: Mice in the 8-12 week of age allowed free access to chow and water were intraperitoneally injection for 3 days with either PBS or recombinant mouse leptin (Sigma) at a dose of 0.5 μg/g body weight twice a daily (9:00 am and 7:00 pm). Hypothalamus was isolated from the mice at 6 hr after leptin treatment and snap-frozen. Total hypothalamic RNA was isolated using Trizol (Invitrogen) according to the manufacturer's instructions. Total RNA was treated with ribonuclease-free deoxyribonuclease (DNase) I for 30 min using a commercially available kit (Invitrogen) to eliminate contamination of genomic DNA. The RNA samples were reverse transcribed with TaqMan Reverse Transcription Reagents (Applied Biosystems, Foster City, Calif.) and subjected to automated fluorescent RT-PCR on an ABI PRISM 7700 Sequence Detection System (Applied Biosystems). All TaqMan probes were labeled with the reporter fluorescein at the 5′-end and with the quencher tetramethylrhodamine at the 3′-end. The following oligonucleotides derived form the mouse POMC and NPY were synthesized and used as primers and probes for Real-time PCR: POMC (sense, 5′-[…]-3′ (SEQ ID NO:42), antisense, 5′-[…]-3′ (SEQ ID NO:43), probe, 5′-6FAM-[…]-TAMRA-3′, SEQ ID NO:44); NPY (sense, 5′-[…]-3′ (SEQ ID NO:45), antisense, 5′-[…]-3′ (SEQ ID NO:46) probes, 5′-6FAM-[…]-TAMRA-3′ (SEQ ID NO:47)). TaqMan Rodent GAPDH Control Reagents (Applied Biosystems) were used as a control primers and probe for each template. Each predicted RT-PCR product spanned an intron/exon junction. The reactions were incubated for 2 min at 50° C., followed by 10 min at 95° C., and then 40 cycles of 15 sec at 95° C. and 1 min at 60° C. Each RT-PCR reaction was performed in triplicate in a final volume of 20 μl and assessed by the comparative Ct (ΔΔCt) method (Applied Biosystems, ABI Prism 7700 Users Bulletin #2).

Stat3 = assay: Leptin-stimulated Stat3 immunoprecipitation and immunoblotting (methylation, PRMT-2 association); type: cell-based, mouse; conditions: leptin 100 nM
Procedure: Immunoprecipitation of STAT3 was performed as follows. Cells treated with or without 100 nM mouse leptin for selected times were washed with phosphate buffered saline and lysed in Nonidet P-40 (NP-40) buffer (20 mM Tris-HCl, pH 8.0, 150 mM NaCl, 25 mM EDTA, 1.0% Triton-X, 0.1% SDS, 10% glycerol, 100 mM NaF, 100 mM Na3P2O7, 1.0% deoxycholic acid, 1 mM Na3VO4, 1× protease inhibitors cocktail; Roche Diagnostic Corp., Indianapolis, Ind.) or RIPA buffer (50 mM Tris-HCl, pH 8.0, 150 mM NaCl, 1% NP-40, 0.5% Na-deoxycholate, 0.1% SDS, 1× protease inhibitors cocktail). After the lysates were incubated to solubilize proteins for 30 min at 4° C., and before they were centrifuged at 15,000 rpm for 10 min at 4° C., the supernatants were rocked with either polyclonal anti-STAT3 antibodies (1:2,000) or monoclonal anti-Flag antibodies for 14 hr at 4° C., and then with protein G agarose for 3 hr at 4° C. For in vitro stimulation, the supernatants from extracted tissue homogenates were rocked with 2 μg polyclonal anti-IRS-1 antibody, and then protein G agarose for 3 hr at 4° C. The beads were washed three times with lysis buffer without proteinase inhibitors, solubilized in 15 μl 3×SDS-polyacrylamide gel electrophoresis (PAGE) buffer (187.5 mM Tris-HCl, 6% SDS, 30% glycerol, 150 mM dithiothreitol, 0.3% bromophenol blue, pH6.8), and subjected to the immunoblotting.
Immunoblotting was performed by boiling samples for 5 min at 95° C. followed by centrifugation for 1 min at 4° C. Aliquots of the supernatant were subjected to 7.5, 10% or 4-15% SDS-PAGE. Proteins in the gel were transferred to a nitrocellulose membrane by electroblotting. The membranes were treated with either anti-pTyr, anti-STAT3, anti-phospho STAT3, anti-α-metR, anti-IRS-1, anti-Flag, anti-phospho IRS-1, anti-arginine (mono- and di-methyl), or anti-β-actin antibodies followed by incubation with secondary antibodies conjugated with HRP. Immunoreactive proteins were detected either by ECL or by ECL plus system (Amersham Pharmacia Biotech). In some cases, bands were quantified using the NIH Image software (Image J version 1.2; National Institutes of Health, Bethesda, Md.). The figures are representative of 3 experiments.

hypothalamic Stat3 = assay: Phospho-Stat3 immunohistochemistry of hypothalamus after leptin; type: in vivo, mouse; conditions: wild-type mice, leptin 1.67 μg/g body weight peripheral
Procedure: After overnight fasting, brains of wild-type and PRMT2−/− mice treated with or without mouse leptin (1.67 μg/g body weight) for 90 min were removed immediately after decapitation, frozen in 2-methylbutane with a bed of crushed dry ice for 6 sec. 16-μm thick coronal sections were cut on a cryostat at −20° C. and were thaw-mounted on slides (K•D Medical Inc., Columbia, Md.). Sections were fixed with acetone for 10 min at 4° C. and then incubated in methanol for 30 min at −20° C. After treatment with 0.3% H2O2 in methanol for 30 min at room temperature to block endogenous peroxidase, sections were blocked in Tris-buffered saline (TBS)-Ca (100 mM Tris-HCl, pH 7.4, 150 mM NaCl, 1 mM CaCl2) containing 10% normal goat serum and 3% bovine serum albumin (BSA) and incubated with a rabbit anti-pStat3 (pY705) diluted in the same blocking solution as previously described above overnight at 4° C. On the next day sections were washed three time with TBS-Ca, incubated with a biotinylated secondary goat antibody in TBS-Ca containing 1% BSA for 1 hr at room temperature and then treated with ABC solution (Vector laboratories, Inc., Burlingame, Calif.) for 1 hr. In a final step, the signal was developed by DAB solution (Vector laboratories), giving a brown precipitate, dehydrated and mounted using Permount (Sigma-Aldrich). […]

methylation of GST-Stat3 (GST-Stat3)	Molecule	food intake ([1]; PRMT2−/− mice)	weight change ([1]; PRMT2−/− mice, leptin 0.1 μg/g)	food intake ([1]; wild-type mice)	weight change ([1]; wild-type mice, leptin 0.1 μg/g peripheral injection, for 5 days)	higher level of hypothalamic POMC mRNA compared with leptin-treated wild-type mice ([2]; PRMT2−/− mice, leptin 0.5 μg/g)	hypothalamic NPY mRNA expression ([2]; PRMT2−/− mice, leptin 0.5 μg/g)	weight loss ([2]; PRMT2−/− mice)	increase of hypothalamic POMC mRNA compared with untreated mice ([2]; wild-type mice, leptin 0.5 μg/g)	weight loss ([2]; wild-type mice)	PRMT-2 co-precipitated with STAT3 (Stat3; GT1-7 cells)	Stat3 methylation (Stat3; GT1-7 cells)	Stat3 methylation (Stat3; PRMT2−/− VSMC)	Stat3 methylation (Stat3; wild-type VSMC)	time of peak tyrosine phosphorylation of hypothalamic Stat3 (hypothalamic Stat3)
could methylate GST-Stat3	PRMT2-Flag: Flag-tagged wild-type mouse PRMT2 fusion protein purified from transfected HEK293 cells (protein, left off: small tags and cut ends, Flag-tagged wild-type mouse PRMT2 fusion protein purified from transfected HEK293 cells) MEAPGEGPCSESQVIPVLEEDPVDYGCEMQLLQDGAQLQLQLQPEEFVAIADYTATDETQLSFLRGEKILILRQTTADWWWGERAGCCGYIPANHLGKQLEEYDPEDTWQDEEYFDSYGTLKLHLEMLADQPRTTKYHSVILQNKESLKDKVILDVGCGTGIISLFCAHHARPKAVYAVEASDMAQHTSQLVLQNGFADTITVFQQKVEDVVLPEKVDVLVSEWMGTCLLFEFMIESILYARDTWLKGDGIIWPTTAALHLVPCSAEKDYHSKVLFWDNAYEFNLSALKSLAIKEFFSRPKSNHILKPEDCLSEPCTILQLDMRTVQVPDLETMRGELRFDIQKAGTLHGFTAWFSVYFQSLEEGQPQQVVSTGPLHPTTHWKQTLFMMDDPVPVHTGDVVHGFCCVTKKSGMEKAHVCLSELGCHVRTRSHVSTELETGSFRSGGDS														
	leptin: recombinant mouse leptin (Sigma-Aldrich Inc.) (protein, UniProt P41160 22-167, looked up) Leptin: VPIQKVQDDTKTLIKTIVTRINDISHTQSVSAKQRVTGLDFIPGLHPILSLSKMDQTLAVYQQVLTSLPSQNVLQIANDLENLRDLLHLLAFSKSCSLPQTSGLQKPESLDGVLEASLYSTEVVALSRLQGSLQDILQQLDVSPEC	~92%	continuously lost weight for the duration of the study	did not alter food intake	-0.158 g	~90%	significantly reduced	-1.0 ± 0.2 g	~53%	-0.59 ± 0.29 g	enhanced that amount PRMT-2 that co-precipitated with STAT3	remarkably increased at 5 min and sustained for 60 min	increased Stat3 methylation was not observed	evoked a transient methylation of Stat3 at 10 min	45 min
